For orientation: stoichiometry N means the number of molecules, sites or subunits per partner or assembly.

Consider four molecules from paper PMC4938712 (Structure (London, England : 1993), 2016).

The target in one test is HIV-1 Rev P31A (HIV-1) (UniProt P04618). The test is described as follows: AUC.
A further test concerns the target HIV-1 Rev L64A (HIV-1) (UniProt P04618).
Test [1] deals with T1, HIV-1 Rev, wild type (HIV-1), P04618.
T1 chain: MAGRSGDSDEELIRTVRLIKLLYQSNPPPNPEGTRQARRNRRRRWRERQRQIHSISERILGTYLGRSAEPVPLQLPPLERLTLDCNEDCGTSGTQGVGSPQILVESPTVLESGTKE
The test is described as follows: AUC. Particulars: remark: other sources report otherwise.

In a further test the target is HIV-1 Rev, wild type (HIV-1, UniProt P04618). Nature of the test: crystal structure.

With “HIV-1 Rev P31A (from UniProt P04618 1-116) (natural protein)”, the stoichiometry N with HIV-1 Rev P31A (HIV-1) stood at 4. In the test with HIV-1 Rev L64A (HIV-1), “HIV-1 Rev L64A (from UniProt P04618 1-116) (natural protein)” came in with a stoichiometry N of 2.

B1: HIV-1 Rev, wild type, P04618 1-116 (natural protein)
chain: T1 chain
For B1, the stoichiometry N in test [1] stood at 4.

B2: anti-Rev single-chain antibody variable fragment (scFv) (scFv, V domains shown)
VH: QEQLVESGGRLVTPGTALTLTCKVSGFSLSGFWLNWVRQAPGKGLEWVGAIYRGSGSEWYASWAKGRFTISDTSTTVTLKLTSPTTEDTATYFCAADTTDNGYFTIWGPGTLVTVSS
VL: ELVMTQTPSSVSEPVGGTVTIKCQASQSISSWLSWYQQKPGQPPKLLIYDASNLASGVPSRFMGSGSGTEYTLTISGVQREDAATYYCLGGYPAASYRTAFGGGTELEII
In the case of B2, the binding result with HIV-1 Rev, wild type was “binds”.
